From patent publication US11419948B2, “Functionalized microgels with fibrin binding elements” (Georgia Tech Research Corporation, priority 2013, dated 2022) come the findings set out here.

Test [1] concerns platelet poor plasma (PPP). Put plainly: Dynamic in vitro clotting in endothelialized microfluidic device. To be noted: platelet-poor plasma under flow. In kind it is biochemical, human. The method, then: To characterize the effect of microgels on clotting in vitro, a endothelialized microfluidics device that accurately recapitulates the cellular, physical, and hemodynamic environment of microcirculation, was used as previously described, Jackson, et al., Journal of Thrombosis and Haemostasis: JTH 7 Suppl 1:17-20 (2009). For these experiments, clotting of platelet poor plasma (PPP) was analyzed in the absence or presence of fibrin-binding microgels of varying degrees of crosslinking in real time using confocal microscopy. As a control, clotting of platelet rich plasma (PRP) or PPP in the presence of non-fibrin binding microgels were also investigated. Microgels or buffer were added to PPP immediately prior to injection into the microfluidics device. To visualize clotting, PPP was spiked with Alexa Fluor-488 labeled fibrinogen. Endothelial cells were stained with Cell Mask Deep Red (Invitrogen) and microgels were labeled with Alexa Fluor 546. For experiments utilizing PRP, platelets were stained with Cell Mask Red (Invitrogen). Samples were flowed at 1.1 μL/min and imaged continuously for 20 min. Clotting overtime was characterized through imaging processing with Image J (NIH). Each microfluidic device is comprised of three regions of different flow rates, comprising four endothelialized channels.

The next test deals with T1, fibrinogen (Homo sapiens, UniProt P02671+P02675+P02679).
T1 sequence (P02671 20-629 limits assumed): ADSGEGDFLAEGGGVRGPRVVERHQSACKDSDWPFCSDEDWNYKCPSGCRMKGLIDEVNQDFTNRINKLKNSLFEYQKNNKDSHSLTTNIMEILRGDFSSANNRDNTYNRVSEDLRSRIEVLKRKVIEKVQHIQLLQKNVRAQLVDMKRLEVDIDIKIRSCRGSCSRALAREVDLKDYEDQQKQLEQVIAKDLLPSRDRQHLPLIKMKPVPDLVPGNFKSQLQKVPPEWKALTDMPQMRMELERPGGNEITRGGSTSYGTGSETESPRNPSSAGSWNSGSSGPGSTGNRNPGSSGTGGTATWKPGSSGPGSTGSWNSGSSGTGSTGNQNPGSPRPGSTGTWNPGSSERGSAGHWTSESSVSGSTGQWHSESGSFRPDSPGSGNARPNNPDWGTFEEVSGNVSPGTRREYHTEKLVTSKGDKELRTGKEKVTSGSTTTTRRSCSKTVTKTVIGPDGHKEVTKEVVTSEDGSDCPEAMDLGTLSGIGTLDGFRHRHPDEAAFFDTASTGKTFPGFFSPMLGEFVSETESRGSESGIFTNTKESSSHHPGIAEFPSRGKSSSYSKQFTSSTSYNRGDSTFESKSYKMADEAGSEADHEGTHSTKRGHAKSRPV
T1 sequence (P02675 31-491): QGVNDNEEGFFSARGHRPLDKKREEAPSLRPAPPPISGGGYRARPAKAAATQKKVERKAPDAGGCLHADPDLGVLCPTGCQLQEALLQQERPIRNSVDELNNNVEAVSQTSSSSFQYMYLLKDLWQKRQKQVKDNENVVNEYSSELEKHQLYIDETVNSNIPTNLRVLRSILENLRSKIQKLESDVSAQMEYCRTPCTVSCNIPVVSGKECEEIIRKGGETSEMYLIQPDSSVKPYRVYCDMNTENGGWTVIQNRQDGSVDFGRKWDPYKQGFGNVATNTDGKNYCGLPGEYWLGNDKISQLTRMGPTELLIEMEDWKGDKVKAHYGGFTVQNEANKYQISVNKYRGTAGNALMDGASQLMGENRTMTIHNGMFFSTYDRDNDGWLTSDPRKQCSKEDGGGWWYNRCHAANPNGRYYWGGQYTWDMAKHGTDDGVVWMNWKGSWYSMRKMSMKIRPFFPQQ
T1 sequence (P02679 27-453): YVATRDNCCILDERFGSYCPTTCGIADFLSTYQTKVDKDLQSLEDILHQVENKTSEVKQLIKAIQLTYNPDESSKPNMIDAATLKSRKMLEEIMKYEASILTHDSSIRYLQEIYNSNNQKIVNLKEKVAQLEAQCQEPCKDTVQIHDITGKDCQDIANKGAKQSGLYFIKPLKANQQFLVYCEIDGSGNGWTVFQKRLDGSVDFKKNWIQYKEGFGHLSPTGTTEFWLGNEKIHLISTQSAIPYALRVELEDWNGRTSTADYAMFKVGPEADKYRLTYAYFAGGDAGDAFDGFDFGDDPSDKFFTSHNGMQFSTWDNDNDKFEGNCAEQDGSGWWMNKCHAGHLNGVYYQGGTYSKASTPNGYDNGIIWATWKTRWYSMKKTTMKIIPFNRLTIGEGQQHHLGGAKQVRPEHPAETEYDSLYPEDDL
Put plainly: SPR on immobilized fibrinogen surface. It counts as binding. As to the method:
Based on previous SPR protocols developed in the lab^4, a thin fibrin layer was immobilized on the surface of a gold SPR chip via layer-by-layer deposition of fibrinogen-thrombin-fibrinogen^3. SdFvs were flowed across the fibrin surface and the binding interactions were evaluated and recorded. Additionally, antibody fragment binding interactions with a surface of immobilized fibrinogen was used to investigate the specificity to fibrin. All SPR data was examined and analyzed with Scrubber 2 and Clamp XP (Center for Biomolecular Interactions Analysis, University of Utah). Data simulation curves were generated based on a Langmuir 1:1 binding model assuming only a single ligand-analyte interaction.

B1: PLPs: ultra-low crosslinked pNIPAm-AAc microgels conjugated to fibrin-specific sdFv H6 (conjugate)
VH: QVQLLESGGGLVQPGGSLRLSCAASGDRFTHNDMGWVRQAPGKGLEWVSTIPTTDGSTYYADSVKGRFTISRDNSKSTLYLQMNSLRAEDTAVYYCATGYMWKAPAYVKYWGQGTLVTVSSAAAEQKLISEEDLNSAAHYTDIG
B1: in test [1], the “fibrin clot formation in response to thrombin” value is listed as “successfully rescued fibrin clot formation”.

B2: H6: fibrin-specific human sdFv clone from phage biopanning, SEQ ID NO: 1 (protein)
VHH: QVQLLESGGGLVQPGGSLRLSCAASGDRFTHNDMGWVRQAPGKGLEWVSTIPTTDGSTYYADSVKGRFTISRDNSKSTLYLQMNSLRAEDTAVYYCATGYMWKAPAYVKYWGQGTLVTVSSAAAEQKLISEEDLNSAAHYTDIG
Regarding B2, the binding to fibrinogen entry with fibrinogen was “negligible binding”.
